Results: patent US20140050727A1 (MOCHIDA PHARMACEUTICAL, published 2014)

T1: Elastase, Human Neutrophil (human, UniProt P08246 30-247, limits assumed)
T1 sequence (looked up): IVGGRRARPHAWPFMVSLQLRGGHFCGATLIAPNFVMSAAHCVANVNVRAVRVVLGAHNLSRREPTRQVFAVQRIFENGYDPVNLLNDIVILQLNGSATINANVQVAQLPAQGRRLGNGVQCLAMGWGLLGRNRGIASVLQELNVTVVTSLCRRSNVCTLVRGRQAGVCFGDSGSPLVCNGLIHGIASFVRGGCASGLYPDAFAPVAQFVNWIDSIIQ

B1: F1024S-SLPI(D2) with modified linker GSGGGGSGGGGSGGGGS (antibody)
heavy: QIQLVQSGPELKKPGESVKISCKASGYTFTDYAMNWVKQAPGNGLKWMGWINTQTGKPTYADDFKQRFVFSLETSASTAYLQINNLNIEDTATYFCTRSTFYYSSYIYGWYFDFWGPGTMVTVSSASTKGPSVFPLAPCSRSTSESTAALGCLVKDYFPEPVTVSWNSGALTSGVHTFPAVLQSSGLYSLSSVVTVPSSSLGTKTYTCNVDHKPSNTKVDKRVESKYGPPGPSGPAPEFLGGPSVFLFPPKPKDTLMISRTPEVTCVVVDVSQEDPEVQFNWYVDGVEVHNAKTKPREEQFNSTYRVVSVLTVLHQDWLNGKEYKCKVSNKGLPSSIEKTISKAKGQPREPQVYTLPPSQEEMTKNQVSLTCLVKGFYPSDIAVEWESNGQPENNYKTTPPVLDSDGSFFLYSRLTVDKSRWQEGNVFSCSVMHEALHNHYTQKSLSLSLGKGSGGGGSGGGGSGGGGSRRKPGKCPVTYGQCLMLNPPNFCEMDGQCKRDLKCCMGMCGKSCVSPVKA
light: DIVMTQSPTSISISVGERVTMNCKASQNVGSNVDWYQQKTGQSPKLLIYKASNRYTGVPDRFTGSGSGTDFTFTISNMQAVDLAVYYCMQSNTNPPWTFGGGTKLELKRTVAAPSVFIFPPSDEQLKSGTASVVCLLNNFYPREAKVQWKVDNALQSGNSQESVTEQDSKDSTYSLSSTLTLSKADYEKHKVYACEVTHQGLSSPVTKSFNRGEC
B2: polypeptide Q19R (other)
chain: AACNLPIVRGPCRAFIRLWAFDAVKGKCVLFPYGGCQGNGNKFYSEK
B3: polypeptide Q19K/Y46E (other)
chain: AACNLPIVRGPCRAFIKLWAFDAVKGKCVLFPYGGCQGNGNKFESEK
B4: polypeptide R11E/Y46E (other)
chain: AACNLPIVEGPCRAFIQLWAFDAVKGKCVLFPYGGCQGNGNKFESEK
B5: polypeptide Q19R/Y46E (other)
chain: AACNLPIVRGPCRAFIRLWAFDAVKGKCVLFPYGGCQGNGNKFESEK
B6: polypeptide Q19K/Y46D (other)
chain: AVLPQEEEGSGMAACNLPIVRGPCRAFIKLWAFDAVKGKCVLFPYGG
B7: polypeptide Q19R/Y46D (other)
chain: AVLPQEEEGSGMAACNLPIVRGPCRAFIRLWAFDAVKGKCVLFPYGG
B8: polypeptide R11Q/Q19K/Y46D (other)
chain: AVLPQEEEGSGMAACNLPIVQGPCRAFIKLWAFDAVKGKCVLFPYGG
B9: polypeptide R11D/Q19K/Y46D (other)
chain: AVLPQEEEGSGMAACNLPIVDGPCRAFIKLWAFDAVKGKCVLFPYGG
B10: polypeptide R11L/Q19K/Y46D (other)
chain: AVLPQEEEGSGMAACNLPIVLGPCRAFIKLWAFDAVKGKCVLFPYGG
B11: polypeptide R11E/Q19K/Y46E (other)
chain: AVLPQEEEGSGMAACNLPIVEGPCRAFIKLWAFDAVKGKCVLFPYGG

What was measured:
[1] = target: T1, Elastase, Human Neutrophil; experiment: cell-based or functional assay
Human Factor Xa = Human Factor Xa (human, UniProt P00742 41-488, limits assumed); experiment: cell-based or functional assay
Human Factor Xa, sequence (P00742 41-488 limits assumed): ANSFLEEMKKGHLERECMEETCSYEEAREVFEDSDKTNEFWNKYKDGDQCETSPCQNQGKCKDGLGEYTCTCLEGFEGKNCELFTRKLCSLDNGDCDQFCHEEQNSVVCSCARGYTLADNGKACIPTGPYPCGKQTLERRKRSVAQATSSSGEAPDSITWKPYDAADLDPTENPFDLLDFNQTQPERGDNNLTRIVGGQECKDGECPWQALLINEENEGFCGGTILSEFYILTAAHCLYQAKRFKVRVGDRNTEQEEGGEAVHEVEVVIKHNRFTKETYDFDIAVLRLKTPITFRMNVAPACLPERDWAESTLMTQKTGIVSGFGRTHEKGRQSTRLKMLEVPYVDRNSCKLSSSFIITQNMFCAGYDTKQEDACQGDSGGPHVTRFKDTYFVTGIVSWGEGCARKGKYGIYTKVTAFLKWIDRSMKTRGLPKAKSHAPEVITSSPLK

Row | 50% inhibitory concentration (elastase inhibitory activity) [1] [µg/mL] | FXa-inhibiting activity (Human Factor Xa) | Binder
1 | 11.6 |  | B1
2 |  | ~6 times that of polypeptide AN68 | B2
3 |  | ~10 times that of polypeptide AN68 | B3
4 |  | ~3 times that of polypeptide AN68 | B4
5 |  | ~10 times that of polypeptide AN68 | B5
6 |  | ~20 times that of polypeptide AN68 | B6
7 |  | ~18 times that of polypeptide AN68 | B7
8 |  | ~20 times that of polypeptide AN68 | B8
9 |  | ~5 times that of polypeptide AN68 | B9
10 |  | ~16 times that of polypeptide AN68 | B10
11 |  | ~13 times that of polypeptide AN68 | B11
